The assay has as its target T1, human plasma kallikrein (human, UniProt P03952 20-390; P03952 391-638).
T1 construct: also called pKal; Human pKal
Description: ELISA, biotinylated pKal signal over streptavidin background. From the text:
Abbreviations used: “T/B” is the ELISA signal obtained using of the “target” (biotinylated plasma kallikrein) divided by the ELISA signal of the “background” (streptavidin); both of which were coated on microtiter plates, “nd” is not determined. The symbol “q” refers to the amber suppressible stop codon (TAG), which is translated as glutamine (Q) in strains of E. coli such as the TG1 cells that were used to express the Fab fragments.

T1 sequence (P03952 20-390, chain 1 of 2): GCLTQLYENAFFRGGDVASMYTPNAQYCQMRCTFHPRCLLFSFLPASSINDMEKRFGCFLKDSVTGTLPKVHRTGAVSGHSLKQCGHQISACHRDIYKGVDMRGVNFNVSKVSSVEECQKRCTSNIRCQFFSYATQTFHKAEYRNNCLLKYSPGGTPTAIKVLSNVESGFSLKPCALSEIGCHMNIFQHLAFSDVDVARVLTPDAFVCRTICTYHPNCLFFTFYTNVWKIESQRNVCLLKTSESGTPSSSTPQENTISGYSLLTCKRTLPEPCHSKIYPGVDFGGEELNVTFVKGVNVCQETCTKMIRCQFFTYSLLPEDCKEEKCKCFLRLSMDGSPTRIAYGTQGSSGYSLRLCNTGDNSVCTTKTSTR
T1 sequence (P03952 391-638, chain 2 of 2): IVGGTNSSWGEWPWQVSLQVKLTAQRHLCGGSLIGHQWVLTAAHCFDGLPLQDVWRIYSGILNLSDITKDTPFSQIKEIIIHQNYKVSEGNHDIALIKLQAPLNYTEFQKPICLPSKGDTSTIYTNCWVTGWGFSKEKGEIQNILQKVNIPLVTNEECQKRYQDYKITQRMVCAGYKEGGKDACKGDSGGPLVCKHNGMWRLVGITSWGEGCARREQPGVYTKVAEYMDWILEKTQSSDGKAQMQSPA

B1: M29-D09 (Fab, V domains shown)
VH: EVQLLESGGGLVQPGGSLRLSCAASGFTFSWYTMVWVRQAPGKGLEWVSYIYPSGGATFYADSVKGRFTISRDNSKNTLYLQMNSLRAEDTAVYYCAMGSYDYIWGFYSDHWGQGTLVTVSS
VL: QSALTQPPTVSVSPGQTARITCSGNKLGDKYVAWYQQKPGQSPMLVIYQDTKRPSRVSERFSGSNSANTATLSISGTQALDEADYYCQAWDSSIVIFGGGTRLTVL
notes: HC as printed runs into CH1; also called 559A-M0029-D09
For B1, the “ELISA (T/B)” value amounted to 47.5 T/B.

B2: M8-A09 (Fab, V domains shown)
VH: EVQLLESGGGLVQPGGSLRLSCAASGFTFSTYFMLWVRQAPGKGLEWVSSIYPSGGNTVYADSVKGRFTISRDNSKNTLYLQMNSLRAEDTAVYYCARAASPVRNYYYYGMDVWGQGTTVTVSS
VL: QCELTQPPSESVSPGQTANITCSGDKLGNKYAYWYQQKPGQSPVLVIYQDNNRPSGIPERFSGSNSGNTATLTISGTQAIDEANYYCQAWDSRTVVFGGGTKLTVL
notes: HC as printed runs into CH1
As for B2, the “ELISA (T/B)” value came to 5.4 T/B.

B3: M38-F02 (Fab, V domains shown)
VH: EVQLLESGGGLVQPGGSLRLSCAASGFTFSYYMMVWVRQAPGKGLEWVSYIYSSGGHTVYADSVKGRFTISRDNSKNTLYLQMNSLRAEDTAVYYCARDLFLYDFWSKGAFDIWGQGTMVTVSS
VL: QSVLTQPPSVSVSPGQTASITCSGEKLGDKYVSWYQQKPGQSPSLVICEDSRRPSGIPERFSGSNSGNTATLTISGAQPMDEADYYCQAWDSSTAIFGPGTKVTVL
notes: HC as printed runs into CH1
In the case of B3, the “ELISA (T/B)” value was determined as 33.5 T/B.

B4: M7-B04 (Fab, V domains shown)
VH: EVQLLESGGGLVQPGGSLRLSCAASGFTFSWYSMVWVRQAPGKGLEWVSSISPSGGLTNYADSVKGRFTISRDNSKNTLYLQMNSLRAEDTAVYYCARHTAARPFYYYYMDVWGKGTTVTVSS
VL: QSALTQPASVSGSPGQSITISCTGTNSDVGNYNLVSWYQQHPGEAPKLLIYEVNKRPSGVSNRFSGSKSGNTASLTISGLQAEDEADYLCCSYAGNRNFYVFGAGTKVTVL
notes: HC as printed runs into CH1
As to B4, the “ELISA (T/B)” value stood at 4.1 T/B.

B5: M35-G04 (Fab, V domains shown)
VH: EVQLLESGGGLVQPGGSLRLSCAASGFTFSYYHMSWVRQAPGKGLEWVSVISPSGGSTKYADSVKGRFTISRDNSKNTLYLQMNSLRAEDTAVYYCARGGSSDYAWGSYRRPYYFDYWGQGTLVTVSS
VL: DIQMTQSPATLSLSPGERATLSCRASQSVSSYLAWYQQKPGQAPRLLIYDASNRATGIPARFSGSGSGTDFTLTISSLEPEDFAVYYCQQRSNWPRGFTFGPGTKVDIK
notes: HC as printed runs into CH1; also called 559A-M0035-G04
As to B5, the “ELISA (T/B)” value is 11.1 T/B.

B6: M10-F10 (Fab, V domains shown)
VH: EVQLLESGGGLVQPGGSLRLSCAASGFTFSFYNMNWVRQAPGKGLEWVSSISPSGGETNYADSVKGRFTISRDNSKNTLYLQMNSLRAEDTAVYYCARGGGAYRNNWWGGFDIWGLGTMVTVSS
VL: DIQMTQSPSSLSASVGDRVTITCRASQSISVYLNWYQHKPGKAPKLLIYGASNLQFGVPSRFSGSGYGTDFTLTISSLQPEDFATYHCQQTFSLFTFGGGTKVEIK
notes: HC as printed runs into CH1
Consider B6, for which the “ELISA (T/B)” value was 39.2 T/B.

B7: M7-E07 (Fab, V domains shown)
VH: EVQLLESGGGLVQPGGSLRLSCAASGFTFSWYLMIWVRQAPGKGLEWVSYIYPSGGFTYYADSVKGRFTISRDNSKNTLYLQMNSLRAEDMAVYYCARTEGPLSWGYGMDVWGQGTTVTVSS
VL: not shown
notes: HC as printed runs into CH1
As for B7, the “ELISA (T/B)” value worked out at 45.7 T/B.

B8: M27-E05 (Fab, V domains shown)
VH: EVQLLESGGGLVQPGGSLRLSCAASGFTFSWYLMIWVRQAPGKGLEWVSYIYPSGGFTYYADSVKGRFTISRDNSKNTLYLQMNSLRAEDMAVYYCARTEGPLSWGYGMDVWGQGTTVTVSS
VL: not shown
notes: HC as printed runs into CH1
Regarding B8, the “ELISA (T/B)” value came out at 41.3 T/B.

B9: M29-E09 (Fab, V domains shown)
VH: EVQLLESGGGLVQPGGSLRLSCAASGFTFSWYEMGWVRQAPGKGLEWVSSIYSSGGGTMYADSVKGRFTISRDNSKNTLYLQMNSLRAEDTAVYYCARNPQYSGYDRSLSDGAFDIWGQGTMVTVSS
VL: QYELTQPPSVSVSPGQTATITCSGDNLGNKYNSWYQQKPGQSPLLVIYQDTKRPSAIPERFSGSNSGNTATLTISGTQAMDEADYYCQAWDGNVVFGGGTKLTVL
notes: HC as printed runs into CH1
As to B9, the “ELISA (T/B)” value was 28.8 T/B.

The values are drawn from US20260184815A1 (published 2026).
